# Experimental data as given in patent publication US20190002560A1 (Alector, published 2019).
# “And” between values parts separate entries of the source, which are not always exact repeats. Identical values can stand only once.
# B1: anti-CD33 antibody 2F5 (antibody, V domains shown)
# VH: EVQLQQSGPELVKPGASVKISCKASGYTFTDYNLHWVKLSHGKSLEWIGFIYPSNGITGYNQKFKNKATLTVDNSSSTAYMELRSLTSEDSAVYYCARSTVDYFDYWGQGTTLTVSS
# VL: ZTQSLASLAVSLGQRATMSCRASQSVSTSTYSYMHWYQQKPGQPPKLLIKYASNLECGVPARFSGSGZGTDFTLNIHPVEEEDSATYYCQHSWEIPLTFGGGTKLEMK
# notes: Mouse hybridoma antibody, tested under the label 2F5; also called C-2F5; 2F5 mAb
# B2: anti-CD33 antibody 1A8 (antibody, V domains shown)
# VH: QVQLQQSGAELVKPGASVKLSCKASGYTFTSYDINWVRQRPEQGLEWIGWIFPGDGSTKYNEKFKGKATLTTDKSSNTTYMQLSRLTSEDSAVYFCARGYHYAMDSWGQGTSVTVSS
# VL: DIKMTQSPSSMYESLGERVTITCKASQDINKYLSWLQQKPGKSPKTLIYRANRLVDGVPSRFSGSGSGQDYSLTISSLEYEDMGIYHCLQYDEFPLTFGAGTKLELK
# notes: Mouse hybridoma antibody; mIgG1 served as isotype control; also called 1A8.2
# B3: anti-CD33 antibody gemtuzumab (antibody, V domains shown)
# VH: EVQLVQSGAEVKKPGSSVKVSCKASGYTITDSNIHWVRQAPGQSLEWIGYIYPYNGGTDYNQKFKNRATLTVDNPTNTAYMELSSLRSEDTAFYYCVNGNPWLAYWGQGTLVTVSS
# VL: DIQLTQSPSTLSASVGDRVTITCRASESLDNYGIRFLTWFQQKPGKAPKLLMYAASNQGSGVPSRFSGSGSGTEFTLTISSLQPDDFATYYCQQTKEVPWSFGQGTKVEVKR
# notes: Commercially available antibody
# B4: anti-CD33 antibody lintuzumab (antibody, V domains shown)
# VH: QVQLVQSGAEVKKPGSSVKVSCKASGYTFTDYNMHWVRQAPGQGLEWIGYIYPYNGGTGYNQKFKSKATITADESTNTAYMELSSLRSEDTAVYYCARGRPAMDYWGQGTLVTVSS
# VL: DIQMTQSPSSLSASVGDRVTITCRASESVDNYGISFMNWFQQKPGKAPKLLIYAASNQGSGVPSRFSGSGSGTDFTLTISSLQPDDFATYYCQQSKEVPWTFGQGTKVEIKR
# notes: as for B3
# What was measured:
# N20A = assay: alanine-scanning library in HEK-293T cells, immunofluorescence by flow cytometry; mean of duplicates, mock-subtracted, normalised to wild-type CD33; range in parentheses
# P46A = assay: as above
# N53A = assay: as above
# K52A = assay: as above
# Y49A = assay: as above
# P19A = assay: as above
# Y50A = assay: as above
# F44A = assay: as above
# D18A = assay: as above
# F21A = assay: as above
# human CD33 [1] = biological target: T1, human CD33 (human, UniProt P20138 18-364); assay: cell-based or functional assay
# CD33-Fc (human) = CD33-Fc (human) (UniProt P20138); assay: red blood cell solid adhesion assay, plate-bound CD33-Fc, antibody at 1.0 ug/ml; competitor: ligands on red blood cells; % of RBC binding without antibody
# human CD33 [2] = biological target: T1, human CD33; assay: flow cytometry, human primary monocytes, 10 ug/ml antibody
# human CD33 [3] = biological target: T1, human CD33; assay: flow cytometry, human primary dendritic cells, 10 ug/ml antibody
# human CD33 [4] = biological target: T1, human CD33; assay: flow cytometry, human primary macrophages, 10 ug/ml antibody
# human CD33 [5] = biological target: T1, human CD33; assay: flow cytometry, CHO cells expressing recombinant human CD33, 10 ug/ml antibody, PE secondary
# [6] = biological target: histidine-tagged human CD33 (Sino Biological) (human, UniProt P20138 18-364); assay: SPR (BiaCore T200, 25 C), antibody captured on anti-mouse IgG chip, 20 nM His-tagged CD33 in solution, single-concentration 1:1 fit; apparent KD
# human CD33 [7] = biological target: T1, human CD33; assay: flow cytometry binding curve on human primary dendritic cells, about 0.003-3 nM antibody (FIG. 5H)
# human CD33 [8] = biological target: T1, human CD33; assay: flow cytometry binding curve on human primary dendritic cells, about 0.003-3 nM antibody
# T1 sequence (P20138 18-364 limits assumed): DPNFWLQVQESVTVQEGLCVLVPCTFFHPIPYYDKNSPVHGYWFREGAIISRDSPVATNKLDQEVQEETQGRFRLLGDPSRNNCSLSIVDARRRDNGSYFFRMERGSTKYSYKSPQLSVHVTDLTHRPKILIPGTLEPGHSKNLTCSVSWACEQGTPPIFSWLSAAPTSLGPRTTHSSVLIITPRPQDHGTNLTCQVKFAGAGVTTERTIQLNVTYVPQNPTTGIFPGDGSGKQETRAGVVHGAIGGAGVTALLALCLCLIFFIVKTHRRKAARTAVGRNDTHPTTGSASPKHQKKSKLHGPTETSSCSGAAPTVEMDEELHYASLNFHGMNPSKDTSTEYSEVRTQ
# histidine-tagged human CD33 (Sino Biological), sequence (P20138 18-364): as the sequence (P20138 18-364 limits assumed) above
# D18A, sequence (receptor chain, as listed by the source D18A D18A limits assumed): as the sequence (P20138 18-364 limits assumed) above, with D1A counted along it
# F44A, sequence (receptor chain, as listed by the source F44A F44A limits assumed): as the sequence (P20138 18-364 limits assumed) above, with F27A counted along it
# P46A, sequence (receptor chain, as listed by the source P46A P46A limits assumed): as the sequence (P20138 18-364 limits assumed) above, with P29A counted along it
# N20A, sequence (receptor chain, as listed by the source N20A N20A limits assumed): as the sequence (P20138 18-364 limits assumed) above, with N3A counted along it
# K52A, sequence (receptor chain, as listed by the source K52A K52A limits assumed): as the sequence (P20138 18-364 limits assumed) above, with K35A counted along it
# N53A, sequence (receptor chain, as listed by the source N53A N53A limits assumed): as the sequence (P20138 18-364 limits assumed) above, with N36A counted along it
# P19A, sequence (receptor chain, as listed by the source P19A P19A limits assumed): as the sequence (P20138 18-364 limits assumed) above, with P2A counted along it
# F21A, sequence (receptor chain, as listed by the source F21A F21A limits assumed): as the sequence (P20138 18-364 limits assumed) above, with F4A counted along it
# Y49A, sequence (receptor chain, as listed by the source Y49A Y49A limits assumed): as the sequence (P20138 18-364 limits assumed) above, with Y32A counted along it
# Y50A, sequence (receptor chain, as listed by the source Y50A Y50A limits assumed): as the sequence (P20138 18-364 limits assumed) above, with Y33A counted along it
Molecule,Binding Reactivity (% WT) (N20A),Binding Reactivity (% WT) (P46A),Binding Reactivity (% WT) (N53A),Binding Reactivity (% WT) (K52A),Binding Reactivity (% WT) (Y49A),Binding Reactivity (% WT) (P19A),Binding Reactivity (% WT) (Y50A),Binding Reactivity (% WT) (F44A),Binding Reactivity (% WT) (D18A),Binding Reactivity (% WT) (F21A),"% CD33 surface expression, U937 cells (FACS, 1.0 ug/ml antibody, 24 h, % of no antibody) (human CD33 [1])","% CD33 surface expression, human microglial cells (FACS, % of no antibody) (human CD33 [1])","% CD33 surface expression, human primary dendritic cells (FACS, 1.0 ug/ml antibody, 24 h, % of no antibody) (human CD33 [1])","% CD33 surface expression, human primary macrophages (FACS, 1.0 ug/ml antibody, 24 h, % of no antibody) (human CD33 [1])","% CD33 surface expression, human primary monocytes (FACS, 1.0 ug/ml antibody, 24 h, % of no antibody) (human CD33 [1])",Percent RBC Binding to CD33 (CD33-Fc (human)),% Positive (human CD33 [2]),MFI (human CD33 [2]),Kd [6],EC50 (human CD33 [8]),further results
WM53 MAb (antibody),166 % WT,152 % WT,164 % WT,12.4 % WT,1.7 % WT,116 % WT,75.1 % WT,76.5 % WT,98 % WT,137 % WT,,,,,,,,,,,
isotype mIgG1 control antibody,,,,,,,,,,,95.7%,92.1%,70.5%,95.4%,104%,83.8%,2.38%,109,,,% Positive (human CD33 [3]): 1.97%; MFI (human CD33 [3]): 861; % Positive (human CD33 [4]): 4.16%; MFI (human CD33 [4]): 1220; % Positive (human CD33 [5]): 0.47%; MFI (human CD33 [5]): 227
B1,111 % WT,105 % WT,78.2 % WT,8.9 % WT,20.6 % WT,102 % WT,32.7 % WT,102 % WT,79.5 % WT,122 % WT,46.7%,25%,15.9%,58.7%,23.3%,11.5%,97.5%,1200,300 pM,138 pM,"EC50 for reducing cell surface expression of CD33 (12-point 2-fold titration, FACS) (human CD33 [1]): 21.5 pM; cell surface CD33 on hCD45+ hCD14+ blood cells of hu-NSGS mice (FACS, 40 mg/kg i.p.) (human CD33 [1]): 80%; cell surface CD33 on human primary monocytes at 0.001 ug/ml antibody (FACS, % of no antibody) (human CD33 [1]): 50% and 30%; cell surface CD33 on human primary monocytes at 0.01 ug/ml antibody (FACS, % of no antibody) (human CD33 [1]): 20%; cell surface CD33 on peripheral human CD45+ CD14+ monocytes of humanized NOG mice (FACS, single i.p. dose) (human CD33 [1]): 50%; fold improvement over gemtuzumab in reducing cell surface levels of CD33 on human primary monocytes (human CD33 [1]): 10 fold; fold improvement over lintuzumab in reducing cell surface levels of CD33 on human primary monocytes (human CD33 [1]): 100 fold; EC50 (human CD33 [7]): < 200 pM; % Positive (human CD33 [3]): 99%; MFI (human CD33 [3]): 4300; % Positive (human CD33 [4]): 96.7%; MFI (human CD33 [4]): 2510; % Positive (human CD33 [5]): 87%; MFI (human CD33 [5]): 9520"
B2,,,,,,,,,,,,,,,,10%,,,6000 pM,,
B3,,,,,,,,,,,,,,,,,,,1100 pM,612 pM,"EC50 for reducing cell surface expression of CD33 (12-point 2-fold titration, FACS) (human CD33 [1]): 108 pM"
B4,,,,,,,,,,,,,,,,,,,,845 pM,
